Changes are numbered by the printed parent chain. Names and notes keep the numbering of the source.
How the values were obtained:
[1] = biological target: T1, His-BIN2 (full-length BIN2) (Arabidopsis thaliana, UniProt Q39011 1-380); assay: cell-based or functional assay
T1 sequence (looked up): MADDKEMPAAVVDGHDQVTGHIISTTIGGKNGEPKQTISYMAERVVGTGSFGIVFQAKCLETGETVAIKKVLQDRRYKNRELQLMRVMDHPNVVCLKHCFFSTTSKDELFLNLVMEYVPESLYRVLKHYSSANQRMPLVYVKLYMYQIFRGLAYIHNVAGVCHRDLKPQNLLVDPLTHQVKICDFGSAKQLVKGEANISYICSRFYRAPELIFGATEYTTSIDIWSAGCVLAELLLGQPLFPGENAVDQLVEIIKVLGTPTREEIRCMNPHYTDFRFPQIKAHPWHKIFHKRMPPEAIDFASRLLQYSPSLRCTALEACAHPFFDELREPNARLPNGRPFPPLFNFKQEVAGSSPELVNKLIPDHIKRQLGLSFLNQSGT

[2] = biological target: T1, His-BIN2 (full-length BIN2); assay: pull-down; 1 μg GST-HY5 and 1 μg His-BIN2 in 1 ml binding buffer (25 mM Tris-Cl pH 7.5, 100 mM NaCl, 0.1% NP40), 4 °C; GST beads; washed with 25 mM Tris-Cl pH 7.5, 500 mM NaCl; blots with anti-GST and anti-His; settings: both partners purified

B1: GST-HY5-C (HY5 aa 78-168) (domain or fragment, Arabidopsis thaliana, UniProt O24646 78-168, looked up)
chain: RKRGRTPAEKENKRLKRLLRNRVSAQQARERKKAYLSELENRVKDLENKNSELEERLSTLQNENQMLRHILKNTTGNKRGGGGGSNADASL
- in vitro kinase assay: BIN2-mediated phosphorylation of BZR1 with recombinant C-terminal domain of HY5 (HY5-C) added, against the control [1]: ~2 fold

B2: GST-HY5 (full-length HY5, HY5-F) (natural protein, Arabidopsis thaliana, UniProt O24646 1-168, looked up)
chain: MQEQATSSLAASSLPSSSERSSSSAPHLEIKEGIESDEEIRRVPEFGGEAVGKETSGRESGSATGQERTQATVGESQRKRGRTPAEKENKRLKRLLRNRVSAQQARERKKAYLSELENRVKDLENKNSELEERLSTLQNENQMLRHILKNTTGNKRGGGGGSNADASL
- in vitro kinase assay: BIN2-mediated phosphorylation of BZR1 with recombinant full-length HY5 (HY5-F) added, against the control [1]: ~2 fold

B3: GST-HY5-M (HY5 L137D) (natural protein, Arabidopsis thaliana, UniProt O24646 1-168, looked up)
chain: B2 chain with L137D
notes: HY5, Arabidopsis, with Leu137 changed to Asp; Probably full-length HY5; also called mutated HY5; source: recombinant protein, purified
- binding result [2]: binds
